Results on two molecules are retold here after US20090175855A1 (Genentech, published 2009).

The term Kd denotes the constant that tells how readily two partners part at equilibrium.

The target in test [1] is T1, HVEM expressed on transfected 293 cells (Homo sapiens (Human), UniProt Q92956 39-283).
T1 construct: also called HVEM transfected cells; 293 cells expressing HVEM
T1 sequence: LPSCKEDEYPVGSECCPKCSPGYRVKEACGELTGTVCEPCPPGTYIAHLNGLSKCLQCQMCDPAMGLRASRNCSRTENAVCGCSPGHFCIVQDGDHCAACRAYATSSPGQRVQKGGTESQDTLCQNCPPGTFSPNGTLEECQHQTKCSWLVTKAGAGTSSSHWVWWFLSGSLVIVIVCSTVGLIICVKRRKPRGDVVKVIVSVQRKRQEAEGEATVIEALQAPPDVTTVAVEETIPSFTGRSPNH
The test can be described thus: radioligand binding to transfected cells, Scatchard analysis.

The next test addresses T2, hICOS-Fc (human, UniProt Q9Y6W8 21-141, limits assumed).
T2 construct: Bought (R&D systems); not shown: Fc; not described
T2 sequence (looked up): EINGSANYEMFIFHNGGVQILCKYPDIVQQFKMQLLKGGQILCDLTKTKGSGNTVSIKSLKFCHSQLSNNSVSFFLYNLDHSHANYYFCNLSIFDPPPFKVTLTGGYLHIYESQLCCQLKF
Nature of the test: Biacore; hICOS-Fc amine coupled to a CM5 chip, HVEM-Fc injected at 2 ug/ml and 5 ul/min. (Surface plasmon resonance follows binding to a sensor surface in real time, without labels.)

Another test addresses T3, PRO87299(ECD)-Fc (human, UniProt Q7Z6A9 31-155, I-125 radiolabel in the cell binding assays (Table 7); residues not stated).
T3 construct: Extracellular domain (amino acids 1-155) ligated into a plasmid containing a human Fc domain; also called PRO87299-Fc; PRO87299(ECD)-Fc chimera; not shown: human Fc domain
T3 sequence: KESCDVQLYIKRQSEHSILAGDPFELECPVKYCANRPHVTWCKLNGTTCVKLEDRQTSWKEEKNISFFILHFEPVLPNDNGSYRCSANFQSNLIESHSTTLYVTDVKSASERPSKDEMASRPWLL
Nature of the test: Biacore; HVEM-Fc amine coupled to a CM5 chip at 150 RU, PRO87299-Fc 17 nM injected at 5 ul/min for 1200 s, alone and mixed with 25 nM LIGHT.

For a further test, the target named is T4, hPD-1-Fc (human, UniProt Q15116 25-167, limits assumed).
T4 construct: Bought (R&D systems); not shown: Fc; not described
T4 sequence (Q15116 25-167 limits assumed): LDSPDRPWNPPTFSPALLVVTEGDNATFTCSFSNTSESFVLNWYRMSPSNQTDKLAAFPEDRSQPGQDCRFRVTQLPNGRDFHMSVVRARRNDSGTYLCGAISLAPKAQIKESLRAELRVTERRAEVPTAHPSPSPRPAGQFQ
The test can be described thus: Biacore; hPD-1-Fc amine coupled to a CM5 chip, HVEM-Fc injected at 2 ug/ml and 5 ul/min.

A further test deals with T5, hCD28-Fc (human, UniProt P10747 19-152, limits assumed).
T5 construct: Bought (R&D systems); not shown: Fc; not described
T5 sequence (P10747 19-152 limits assumed): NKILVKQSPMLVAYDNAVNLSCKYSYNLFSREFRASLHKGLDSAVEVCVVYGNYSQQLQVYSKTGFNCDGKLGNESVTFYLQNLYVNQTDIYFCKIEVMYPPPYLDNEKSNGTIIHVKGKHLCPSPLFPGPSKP
Nature of the test: Biacore; hCD28-Fc amine coupled to a CM5 chip, HVEM-Fc injected at 2 ug/ml and 5 ul/min.

Test [2] concerns the target T6, PRO87299/LIGHT (both expressed on the same cells) (human, UniProt Q7Z6A9 31-289; O43557 1-240).
T6 construct: also called Expressed protein PRO87299/LIGHT
Nature of the test: radioligand binding to cells expressing PRO87299/LIGHT, Scatchard analysis.

For a further test, the target named is T7, hCTLA4-Fc (human, UniProt P16410 37-162, limits assumed).
T7 construct: Bought (R&D systems); not shown: Fc; not described
T7 sequence (looked up): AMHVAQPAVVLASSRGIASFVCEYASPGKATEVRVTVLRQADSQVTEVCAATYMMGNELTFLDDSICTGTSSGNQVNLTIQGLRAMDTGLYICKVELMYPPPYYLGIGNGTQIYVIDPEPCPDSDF
Nature of the test: Biacore; hCTLA4-Fc amine coupled to a CM5 chip, HVEM-Fc injected at 2 ug/ml and 5 ul/min.

In test [3] the target is T8, LIGHT expressed on transfected cells (Homo sapiens (Human), UniProt O43557 1-240).
T8 construct: also called Expressed protein LIGHT
Nature of the test: radioligand binding to transfected cells, Scatchard analysis.

Another test addresses T9, PRO87299 on cells (human, UniProt Q7Z6A9 31-289).
T9 construct: Used both for transfected cells and for the native protein on human primary B and CD4+ T cells; also called PRO87299 transfected cells; 293 cells expressing PRO87299
The test is described as above.

B1: LIGHT-FLAG (ligand)
chain: GEMVTRLPDGPAGSWEQLIQERRSHEVNPAAHLTGANSSLTGSGGPLLWETQLGLAFLRGLSYHDGALVVTKAGYYYIYSKVQLGGVGCPLGLASTITHGLYKRTPRYPEELELLVSQQSPCGRATSSSRVWWDSSFLGGVVHLEAGEEVVVRVLDERLVRLRDGTRSYFGAFMV
modifications: I-125 radiolabel; residues not stated
notes: also called I-125-LIGHT-FLAG; not shown: FLAG tag
B1 showed a Kd in [1] of 2.5 nM.

B2: HVEM-Fc (Fc fusion)
chain: LPSCKEDEYPVGSECCPKCSPGYRVKEACGELTGTVCEPCPPGTYIAHLNGLSKCLQCQMCDPAMGLRASRNCSRTENAVCGCSPGHFCIVQDGDHCAACRAYATSSPGQRVQKGGTESQDTLCQNCPPGTFSPNGTLEECQHQTKCSWLVTKAGAGTSSS
modifications: I-125 radiolabel in the cell binding assays (Table 7); residues not stated
notes: also called I-125-HVEM-Fc; HVEM-Fc fusion protein; not shown: Fc
For the molecule B2, the binding result with hICOS-Fc was “no binding (tested: 2 ug/ml)”; with PRO87299(ECD)-Fc, “binds”; with hPD-1-Fc it was “no binding (tested: 2 ug/ml)”; with hCD28-Fc, “no binding (tested: 2 ug/ml)”; in the test with hCTLA4-Fc it was “no binding (tested: 2 ug/ml)”. Moreover, the dissociation constant Kd in [2] stood at 0.5 nM; in test [3], 7 nM; with PRO87299 on cells it was 5.5 nM.
